Test results: article doi:10.1101/2025.11.05.686565 (bioRxiv, 2025)

Biological target: the molecule itself
Assay: cryo-EM structure

B1: full-length, strep-tagged human Wdr37 (natural protein, UniProt Q9Y2I8 1-494, looked up)
chain: MPTESASCSTARQTKQKRKSHSLSIRRTNSSEQERTGLPRDMLEGQDSKLPSSVRSTLLELFGQIEREFENLYIENLELRREIDTLNERLAAEGQAIDGAELSKGQLKTKASHSTSQLSQKLKTTYKASTSKIVSSFKTTTSRAACQLVKEYIGHRDGIWDVSVAKTQPVVLGTASADHTALLWSIETGKCLVKYAGHVGSVNSIKFHPSEQLALTASGDQTAHIWRYAVQLPTPQPVADTSISGEDEVECSDKDEPDLDGDVSSDCPTIRVPLTSLKSHQGVVIASDWLVGGKQAVTASWDRTANLYDVETSELVHSLTGHDQELTHCCTHPTQRLVVTSSRDTTFRLWDFRDPSIHSVNVFQGHTDTVTSAVFTVGDNVVSGSDDRTVKVWDLKNMRSPIATIRTDSAINRINVCVGQKIIALPHDNRQVRLFDMSGVRLARLPRSSRQGHRRMVCCSAWSEDHPVCNLFTCGFDRQAIGWNINIPALLQEK
stoichiometry N: 2
